Laboratory results reported in the RNAGym collection of RNA variant scans (doi:10.7554/elife.90254).

B1: LINE1-mini (parent)
chain: GGCAGAGCUCAACACAGCGUGGCAAAGUGGCUGUGGCUAGACUGCC

Variants of: B1
Experiment: self-cleavage, relative activity (ratio to wild type); higher = more cleavage; in vitro, sequencing; the parent is a self-cleaving ribozyme

Q: With GGCAGAGCUCAACACACCCUGGCAAAGUGGCUGUGGCUAGACUGCC [G17C G19C] as the variant, how does the self-cleavage read?
A: 1.39

Q: For GGCAGAGCUCAACACACCUUGGCAAAGUGGCUGUGGCUAGACUGCC [G17C G19U], which self-cleavage is on record?
A: 0.24

Q: For GGCAGAGCUCAACACACCAUGGCAAAGUGGCUGUGGCUAGACUGCC [G17C G19A], which self-cleavage is on record?
A: 1.14

Q: For GGCAGAGCUCAACACAACGUGGCAAAGUGGCUGUGGCUAGACAGCC [G17A U43A], which self-cleavage is on record?
A: 0.08

Q: Which self-cleavage does the source give for GGCAGAGCUCAACACAACGUGGCAAAGUGGCUGUGGCUAGACGGCC [G17A U43G] here?
A: 0.05

Q: With GGCAGAGCUCAACACAACGUGGCAAAGUGGCUGUGGCUAGACCGCC [G17A U43C] as the variant, how does the self-cleavage read?
A: 0.05

Q: Which self-cleavage does the source give for GGCAGAGCUCAACACAACGAGGCAAAGUGGCUGUGGCUAGACUGCC [G17A U20A] here?
A: 0.1

Q: For GGCAGAGCUCAACACAACGGGGCAAAGUGGCUGUGGCUAGACUGCC [G17A U20G], which self-cleavage is on record?
A: 0.07

Q: Which self-cleavage does the source give for GGCAGAGCUCAACACAACGCGGCAAAGUGGCUGUGGCUAGACUGCC [G17A U20C] here?
A: 0.12

Q: For GGCAGAGCUCAACACAACGUGGCAAAGUGGCUGUGGCGAGACUGCC [G17A U38G], which self-cleavage is on record?
A: 0.04

Q: With GGCAGAGCUCAACACAACGUGGCAAAGUGGCUGUGGCAAGACUGCC [G17A U38A] as the variant, how does the self-cleavage read?
A: 0.21

Q: For GGCAGAGCUCAACACAACGUGGCAAAGUGGCUGUGGCCAGACUGCC [G17A U38C], which self-cleavage is on record?
A: 0.12

Q: Which self-cleavage does the source give for GGCAGAGCUCAACACAACGUGGCAAAGUGGCUAUGGCUAGACUGCC [G17A G33A] here?
A: 0.05

Q: Which self-cleavage does the source give for GGCAGAGCUCAACACAACGUGGCAAAGUGGCUCUGGCUAGACUGCC [G17A G33C] here?
A: 0.04

Q: For GGCAGAGCUCAACACAACGUGGCAAAGUGGCUUUGGCUAGACUGCC [G17A G33U], which self-cleavage is on record?
A: 0.02

Q: Which self-cleavage does the source give for GGCAGAGCUCAACACACCGUGGCAGAGUGGCUGUGGCUAGACUGCC [G17C A25G] here?
A: 0.18

Q: Which self-cleavage does the source give for GGCAGAGCUCAACACACCGUGGCACAGUGGCUGUGGCUAGACUGCC [G17C A25C] here?
A: 0.51

Q: With GGCAGAGCUCAACACACCGUGGCAUAGUGGCUGUGGCUAGACUGCC [G17C A25U] as the variant, how does the self-cleavage read?
A: 0.87

Q: Which self-cleavage does the source give for GGCAGAGCUCAACACAACGUAGCAAAGUGGCUGUGGCUAGACUGCC [G17A G21A] here?
A: 0.22

Q: For GGCAGAGCUCAACACAACGUCGCAAAGUGGCUGUGGCUAGACUGCC [G17A G21C], which self-cleavage is on record?
A: 0.74

Q: Which self-cleavage does the source give for GGCAGAGCUCAACACAACGUUGCAAAGUGGCUGUGGCUAGACUGCC [G17A G21U] here?
A: 0.83

Q: For GGCAGAGCUCAACACAACGUGGCAAAGUGGCUGUGGCUAGAAUGCC [G17A C42A], which self-cleavage is on record?
A: 0.07

Q: Which self-cleavage does the source give for GGCAGAGCUCAACACAACGUGGCAAAGUGGCUGUGGCUAGAGUGCC [G17A C42G] here?
A: 0.12

Q: For GGCAGAGCUCAACACAACGUGGCAAAGUGGCUGUGGCUAGAUUGCC [G17A C42U], which self-cleavage is on record?
A: 0.1

Q: With GGCAGAGCUCAACACACCGUGGCAAAGUGGCUGUGGCUAGACUGCU [G17C C46U] as the variant, how does the self-cleavage read?
A: 0.5

Q: For GGCAGAGCUCAACACACCGUGGCAAAGUGGCUGUGGCUAGACUGCA [G17C C46A], which self-cleavage is on record?
A: 0.64

Q: For GGCAGAGCUCAACACACCGUGGCAAAGUGGCUGUGGCUAGACUGCG [G17C C46G], which self-cleavage is on record?
A: 0.54

Q: With GGCAGAGCUCAACACACCGUAGCAAAGUGGCUGUGGCUAGACUGCC [G17C G21A] as the variant, how does the self-cleavage read?
A: 1.72

Q: With GGCAGAGCUCAACACACCGUCGCAAAGUGGCUGUGGCUAGACUGCC [G17C G21C] as the variant, how does the self-cleavage read?
A: 0.61

Q: Which self-cleavage does the source give for GGCAGAGCUCAACACACCGUUGCAAAGUGGCUGUGGCUAGACUGCC [G17C G21U] here?
A: 1.65

Q: Which self-cleavage does the source give for GGCAGAGCUCAACACACCGUGGCAAACUGGCUGUGGCUAGACUGCC [G17C G27C] here?
A: 0.29

Q: With GGCAGAGCUCAACACACCGUGGCAAAUUGGCUGUGGCUAGACUGCC [G17C G27U] as the variant, how does the self-cleavage read?
A: 1.06

Q: With GGCAGAGCUCAACACACCGUGGCAAAAUGGCUGUGGCUAGACUGCC [G17C G27A] as the variant, how does the self-cleavage read?
A: 1.06

Q: For GGCAGAGCUCAACACACAGUGGCAAAGUGGCUGUGGCUAGACUGCC [G17C C18A], which self-cleavage is on record?
A: 0.1

Q: With GGCAGAGCUCAACACACUGUGGCAAAGUGGCUGUGGCUAGACUGCC [G17C C18U] as the variant, how does the self-cleavage read?
A: 0.08

Q: Which self-cleavage does the source give for GGCAGAGCUCAACACACGGUGGCAAAGUGGCUGUGGCUAGACUGCC [G17C C18G] here?
A: 0.07

Q: For GGCAGAGCUCAACACAACGUGGCAAAGUGCCUGUGGCUAGACUGCC [G17A G30C], which self-cleavage is on record?
A: 0.83

Q: With GGCAGAGCUCAACACAACGUGGCAAAGUGUCUGUGGCUAGACUGCC [G17A G30U] as the variant, how does the self-cleavage read?
A: 0.2

Q: Which self-cleavage does the source give for GGCAGAGCUCAACACAACGUGGCAAAGUGACUGUGGCUAGACUGCC [G17A G30A] here?
A: 0.57

Q: Which self-cleavage does the source give for GGCAGAGCUCAACACAACGUGGCAAAGCGGCUGUGGCUAGACUGCC [G17A U28C] here?
A: 0.97

Q: With GGCAGAGCUCAACACAACGUGGCAAAGGGGCUGUGGCUAGACUGCC [G17A U28G] as the variant, how does the self-cleavage read?
A: 0.1

Q: Which self-cleavage does the source give for GGCAGAGCUCAACACAACGUGGCAAAGAGGCUGUGGCUAGACUGCC [G17A U28A] here?
A: 0.26

Q: Which self-cleavage does the source give for GGCAGAGCUCAACACACCGUGGCAAAGUGGCUGUGGCUUGACUGCC [G17C A39U] here?
A: 0.29

Q: Which self-cleavage does the source give for GGCAGAGCUCAACACACCGUGGCAAAGUGGCUGUGGCUGGACUGCC [G17C A39G] here?
A: 0.1

Q: Which self-cleavage does the source give for GGCAGAGCUCAACACACCGUGGCAAAGUGGCUGUGGCUCGACUGCC [G17C A39C] here?
A: 0.11

Q: Which self-cleavage does the source give for GGCAGAGCUCAACACACCGUGUCAAAGUGGCUGUGGCUAGACUGCC [G17C G22U] here?
A: 1.51

Q: For GGCAGAGCUCAACACACCGUGCCAAAGUGGCUGUGGCUAGACUGCC [G17C G22C], which self-cleavage is on record?
A: 0.82

Q: For GGCAGAGCUCAACACACCGUGACAAAGUGGCUGUGGCUAGACUGCC [G17C G22A], which self-cleavage is on record?
A: 1.3

Q: With GGCAGAGCUCAACACACCGUGGCAAAGUAGCUGUGGCUAGACUGCC [G17C G29A] as the variant, how does the self-cleavage read?
A: 0.12

Q: For GGCAGAGCUCAACACAACAUGGCAAAGUGGCUGUGGCUAGACUGCC [G17A G19A], which self-cleavage is on record?
A: 0.62

Q: For GGCAGAGCUCAACACAACUUGGCAAAGUGGCUGUGGCUAGACUGCC [G17A G19U], which self-cleavage is on record?
A: 0.25

Q: Which self-cleavage does the source give for GGCAGAGCUCAACACAACCUGGCAAAGUGGCUGUGGCUAGACUGCC [G17A G19C] here?
A: 1.09

Q: With GGCAGAGCUCAACACAACGUGCCAAAGUGGCUGUGGCUAGACUGCC [G17A G22C] as the variant, how does the self-cleavage read?
A: 0.17

Q: For GGCAGAGCUCAACACAACGUGACAAAGUGGCUGUGGCUAGACUGCC [G17A G22A], which self-cleavage is on record?
A: 0.32

Q: For GGCAGAGCUCAACACAACGUGUCAAAGUGGCUGUGGCUAGACUGCC [G17A G22U], which self-cleavage is on record?
A: 0.54

Q: With GGCAGAGCUCAACACACCGUGGCAAAGUGGCUGUGGCUAGAGUGCC [G17C C42G] as the variant, how does the self-cleavage read?
A: 0.03
